# From IntAct's records for PubMed 25910212
# B1: CD151 antigen (Homo sapiens), P48509 (parent)
# chain: MGEFNEKKTTCGTVCLKYLLFTYNCCFWLAGLAVMAVGIWTLALKSDYISLLASGTYLATAYILVVAGTVVMVTGVLGCCATFKERRNLLRLYFILLLIIFLLEIIAGILAYAYYQQLNTELKENLKDTMTKRYHQPGHEAVTSAVDQLQQEFHCCGSNNSQDWRDSEWIRSQEAGGRVVPDSCCKTVVALCGQRDHASNIYKVEGGCITKLETFIQEHLRVIGAVGIGIACVQVFGMIFTCCLYRSLKLEHY
# B2: Sodium/myo-inositol cotransporter 2 (Homo sapiens), Q8WWX8-3 (parent)
# chain: MVWWPVGASLFASNVGSGHFIGLAGSGAATGISVSAYELNGLFSVLMLAWIFLPIYIAGQVTTMPEYLRKRFGGIRIPIILAVLYLFIYIFTKISVDMYAGAIFIQQSLHLDLYLAIVGLLAITAVYTVAGGLAAVIYTDALQTLIMLIGALTLMGYSFAAVGGMEGLKEKYFLALASNRSENSSCGLPREDAFHIFRDPLTSDLPWPGVLFGMSIPSLWYWCTDQVIVQRTLAAKNLSHAKGGALMAAYLKVLPLFIMVFPGMVSRILFPDQVACADPEICQKICSNPSGCSDIAYPKLVLELLPTGLRGLMMAVMVAALMSSLTSIFNSASTIFTMDLWNHLRPRASEKELMIVGRVFVLLLVLVSILWIPVVQASQGGQLFIYIQSISSYLQPPVAVVFIMGCFWKRTNEKGAFWGLISGLLLGLVRLVLDFIYVQPRCDQPDERPVLVKSIHYLYFSMILSTVTLITVSTVSWFTEPPSKEMVSHLTWFTRHDPVVQKEQAPPAAPLSLTLSQNGMPEASSSSSVQFEMVQENTSKTHSCDMTPKQSKVVKAILWLCGIQEKGKEELPARAEAIIVSLEENPLVKTLLDVNLIFCVSCAIFIWGYFA
# B3: Emerin (Homo sapiens), P50402 (parent)
# chain: MDNYADLSDTELTTLLRRYNIPHGPVVGSTRRLYEKKIFEYETQRRRLSPPSSSAASSYSFSDLNSTRGDADMYDLPKKEDALLYQSKGYNDDYYEESYFTTRTYGEPESAGPSRAVRQSVTSFPDADAFHHQVHDDDLLSSSEEECKDRERPMYGRDSAYQSITHYRPVSASRSSLDLSYYPTSSSTSFMSSSSSSSSWLTRRAIRPENRAPGAGLGQDRQVPLWGQLLLFLVFVIVLFFIYHFMQAEEGNPF
# partner: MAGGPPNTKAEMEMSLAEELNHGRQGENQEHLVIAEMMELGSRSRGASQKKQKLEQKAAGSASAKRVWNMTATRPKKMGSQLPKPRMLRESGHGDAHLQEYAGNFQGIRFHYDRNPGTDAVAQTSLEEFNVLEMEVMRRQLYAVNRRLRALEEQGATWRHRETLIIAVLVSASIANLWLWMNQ
# B4: EF-hand domain-containing protein 1 (Homo sapiens), Q5JVL4 (parent)
# chain: MVSNPVHGLPFLPGTSFKDSTKTAFHRSQTLSYRNGYAIVRRPTVGIGGDRLQFNQLSQAELDELASKAPVLTYGQPKQAPPADFIPAHVAFDKKVLKFDAYFQEDVPMSTEEQYRIRQVNIYYYLEDDSMSVIEPVVENSGILQGKLIKRQRLAKNDRGDHYHWKDLNRGINITIYGKTFRVVDCDQFTQVFLESQGIELNPPEKMALDPYTELRKQPLRKYVTPSDFDQLKQFLTFDKQVLRFYAIWDDTDSMYGECRTYIIHYYLMDDTVEIREVHERNDGRDPFPLLMNRQRVPKVLVENAKNFPQCVLEISDQEVLEWYTAKDFIVGKSLTILGRTFFIYDCDPFTRRYYKEKFGITDLPRIDVSKREPPPVKQELPPYNGFGLVEDSAQNCFALIPKAPKKDVIKMLVNDNKVLRYLAVLESPIPEDKDRRFVFSYFLATDMISIFEPPVRNSGIIGGKYLGRTKVVKPYSTVDNPVYYGPSDFFIGAVIEVFGHRFIILDTDEYVLKYMESNAAQYSPEALASIQNHVRKREAPAPEAESKQTEKDPGVQELEALIDTIQKQLKDHSCKDNIREAFQIYDKEASGYVDRDMFFKICESLNVPVDDSLVKELIRMCSHGEGKINYYNFVRAFSN
# partner: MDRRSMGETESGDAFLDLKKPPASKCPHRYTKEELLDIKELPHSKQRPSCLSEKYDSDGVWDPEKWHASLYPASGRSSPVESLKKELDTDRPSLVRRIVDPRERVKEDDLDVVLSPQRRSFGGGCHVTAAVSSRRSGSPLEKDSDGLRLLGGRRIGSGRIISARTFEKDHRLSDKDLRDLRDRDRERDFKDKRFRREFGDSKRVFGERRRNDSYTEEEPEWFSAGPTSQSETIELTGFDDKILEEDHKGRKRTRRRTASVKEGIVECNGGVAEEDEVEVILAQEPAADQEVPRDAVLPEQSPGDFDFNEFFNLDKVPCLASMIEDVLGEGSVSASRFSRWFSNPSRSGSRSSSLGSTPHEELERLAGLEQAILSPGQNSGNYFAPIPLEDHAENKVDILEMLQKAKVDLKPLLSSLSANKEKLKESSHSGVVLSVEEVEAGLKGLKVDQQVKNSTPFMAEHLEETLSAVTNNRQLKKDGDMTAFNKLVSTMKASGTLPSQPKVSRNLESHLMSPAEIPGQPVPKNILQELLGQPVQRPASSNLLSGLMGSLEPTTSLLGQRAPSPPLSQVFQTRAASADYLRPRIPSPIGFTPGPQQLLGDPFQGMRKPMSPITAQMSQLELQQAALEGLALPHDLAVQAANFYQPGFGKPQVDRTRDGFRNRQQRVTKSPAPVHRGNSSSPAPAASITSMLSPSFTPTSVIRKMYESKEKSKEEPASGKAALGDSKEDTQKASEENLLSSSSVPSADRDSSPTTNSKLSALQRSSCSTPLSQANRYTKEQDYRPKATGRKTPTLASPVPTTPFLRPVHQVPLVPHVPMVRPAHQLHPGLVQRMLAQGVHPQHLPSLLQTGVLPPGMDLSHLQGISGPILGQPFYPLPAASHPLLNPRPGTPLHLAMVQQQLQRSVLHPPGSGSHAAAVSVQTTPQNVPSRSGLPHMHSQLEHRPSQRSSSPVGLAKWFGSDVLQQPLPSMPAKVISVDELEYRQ
# B5: THAP domain-containing protein 1 (Homo sapiens), Q9NVV9 (parent)
# chain: MVQSCSAYGCKNRYDKDKPVSFHKFPLTRPSLCKEWEAAVRRKNFKPTKYSSICSEHFTPDCFKRECNNKLLKENAVPTIFLCTEPHDKKEDLLEPQEQLPPPPLPPPVSQVDAAIGLLMPPLQTPVNLSVFCDHNYTVEDTMHQRKRIHQLEQQVEKLRKKLKTAQQRCRRQERQLEKLKEVVHFQKEKDDVSERGYVILPNDYFEIVEVPA
# Variants of: B1
# Conditions: with astrc_human GRAMD1C
row,effect of a mutation on the interaction,Variant
1,with no effect,MGEFNEKKTTCGTVCLKYLLFTYNCCFWLAGLAVMAVGIWTLALKSDYISLLASGTYLATAYILVVAGTVVMVTGVLGCCATFKERRNLLRLYFILLLIIFLLEIIAGILAYAYYQQLNTELKENLKDTMTKRYHQPGHEAVTSAVDQLQQEFHCCGSNNSQDWRDSEWIRSQEAGGHVVPDSCCKTVVALCGQRDHASNIYKVEGGCITKLETFIQEHLRVIGAVGIGIACVQVFGMIFTCCLYRSLKLEHY [R178H]
2,disrupting interaction strength,MGEFNEKKTTCGTVCLKYLLFTYNCCFWLAGLAVMAVGIWTLALKSDYISLLASGTYLATAYILVVAGTVVMVTGVLGCCATFKERRNLLRLYFILLLIIFLLEIIAGILAYAYYQQLNTELKENLKDTMTKRYHQPGHEAVTSAVDQLQQEFHCCGSNNSQDWRDSEWICSQEAGGRVVPDSCCKTVVALCGQRDHASNIYKVEGGCITKLETFIQEHLRVIGAVGIGIACVQVFGMIFTCCLYRSLKLEHY [R171C]

# Variants of: B2
# Conditions: with ima4_human KPNA3, O00505
# ima4_human KPNA3, O00505, sequence (O00505 whole entry): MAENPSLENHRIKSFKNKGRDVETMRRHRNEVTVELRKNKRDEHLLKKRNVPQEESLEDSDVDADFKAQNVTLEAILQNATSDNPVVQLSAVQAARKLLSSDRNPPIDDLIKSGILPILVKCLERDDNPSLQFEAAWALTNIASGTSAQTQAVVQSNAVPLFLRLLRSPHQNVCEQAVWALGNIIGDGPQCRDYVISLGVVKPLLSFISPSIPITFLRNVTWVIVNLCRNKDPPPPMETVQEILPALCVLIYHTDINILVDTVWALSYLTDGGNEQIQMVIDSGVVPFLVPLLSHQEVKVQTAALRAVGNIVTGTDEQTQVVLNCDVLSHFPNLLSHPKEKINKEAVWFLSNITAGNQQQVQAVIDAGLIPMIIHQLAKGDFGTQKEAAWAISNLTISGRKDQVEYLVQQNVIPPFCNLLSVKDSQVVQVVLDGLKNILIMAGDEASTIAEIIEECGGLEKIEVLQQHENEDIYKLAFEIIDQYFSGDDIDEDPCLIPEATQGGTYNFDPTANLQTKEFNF
row,effect of a mutation on the interaction,Variant
1,with no effect,V118A

# Variants of: B3
# Conditions: with fate1_human FATE1, Q969F0
row,effect of a mutation on the interaction,Variant
1,with no effect,MDNYADLSDTELTTLLRRYNIPHGPVVGSTRRLYEKKIFEYETQRRRLSPPSSFAASSYSFSDLNSTRGDADMYDLPKKEDALLYQSKGYNDDYYEESYFTTRTYGEPESAGPSRAVRQSVTSFPDADAFHHQVHDDDLLSSSEEECKDRERPMYGRDSAYQSITHYRPVSASRSSLDLSYYPTSSSTSFMSSSSSSSSWLTRRAIRPENRAPGAGLGQDRQVPLWGQLLLFLVFVIVLFFIYHFMQAEEGNPF [S54F]
2,with no effect,MDNYADLSDTELTTLLRRYNIPHGPVVGSTRRLYEKKIFEYETQRRRLSPPSSSAASSYSFSDLNSTRGDADMYDLPKKEDALLYQSKGYNDDYYEESYFTTRTYGEPESAGPSRAVRQSVTSFPDADAFHHQVHDDDLLSSSEEECKDRERPMYGRDSAYQSITHYRPVSASRSSLDLSYYTTSSSTSFMSSSSSSSSWLTRRAIRPENRAPGAGLGQDRQVPLWGQLLLFLVFVIVLFFIYHFMQAEEGNPF [P183T]
3,with no effect,MDNYADLSDTELTTLLRRYNIPHGPVVGSTRRLYEKKIFEYETQRRRLSPPSSSAASSYSFSDLNSTRGDADMYDLPKKEDALLYQSKGYNDDYYEESYFTTRTYGEPESAGPSRAVRQSVTSFPDADAFHHQVHDDDLLSSSEEECKDRERPMYGRDSAYQSITHYRPVSASRSSLDLSYYHTSSSTSFMSSSSSSSSWLTRRAIRPENRAPGAGLGQDRQVPLWGQLLLFLVFVIVLFFIYHFMQAEEGNPF [P183H]
4,with no effect,MDNYADLSDTELTTLLRRYNIPHGPVVGSTRRLYEKKIFEYETQRRRLSPPSSSAASSYSFSDLNSTRGDAVMYDLPKKEDALLYQSKGYNDDYYEESYFTTRTYGEPESAGPSRAVRQSVTSFPDADAFHHQVHDDDLLSSSEEECKDRERPMYGRDSAYQSITHYRPVSASRSSLDLSYYPTSSSTSFMSSSSSSSSWLTRRAIRPENRAPGAGLGQDRQVPLWGQLLLFLVFVIVLFFIYHFMQAEEGNPF [D72V]

# Variants of: B4
# Conditions: with 4et_human EIF4ENIF1, Q9NRA8
row,effect of a mutation on the interaction,Variant
1,with no effect,R159W
2,with no effect,M448T
3,disrupting interaction strength,A394S
4,disrupting interaction strength,P77T
5,disrupting interaction strength,R221H
6,disrupting interaction strength,T508R

# Variants of: B5
# Conditions: with RALYL
row,effect of a mutation on the interaction,Variant
1,with no effect,MVQSCSAYGCKNRYDKDKPVSFHKFPLTRPSLCKEWEAAVRRKNFKPTKYSSICSEHFTPDCFKRECNNKLLKENAVPTILLCTEPHDKKEDLLEPQEQLPPPPLPPPVSQVDAAIGLLMPPLQTPVNLSVFCDHNYTVEDTMHQRKRIHQLEQQVEKLRKKLKTAQQRCRRQERQLEKLKEVVHFQKEKDDVSERGYVILPNDYFEIVEVPA [F81L]

# Variants of: B5
# Conditions: with nup62_human NUP62, P37198
# nup62_human NUP62, P37198, sequence (P37198 whole entry): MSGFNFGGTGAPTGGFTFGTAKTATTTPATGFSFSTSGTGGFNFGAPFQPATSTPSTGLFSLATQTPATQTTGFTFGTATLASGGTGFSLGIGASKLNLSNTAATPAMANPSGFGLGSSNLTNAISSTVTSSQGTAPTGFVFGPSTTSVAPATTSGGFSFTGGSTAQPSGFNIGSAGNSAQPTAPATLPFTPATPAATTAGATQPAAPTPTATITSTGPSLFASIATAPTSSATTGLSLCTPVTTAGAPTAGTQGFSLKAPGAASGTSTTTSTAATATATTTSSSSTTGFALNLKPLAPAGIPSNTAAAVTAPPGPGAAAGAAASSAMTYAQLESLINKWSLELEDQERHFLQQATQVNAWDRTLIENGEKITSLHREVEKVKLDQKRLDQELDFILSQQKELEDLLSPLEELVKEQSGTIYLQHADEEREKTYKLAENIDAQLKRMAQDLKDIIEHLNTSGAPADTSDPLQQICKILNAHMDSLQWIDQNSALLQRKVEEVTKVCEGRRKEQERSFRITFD
row,effect of a mutation on the interaction,Variant
1,with no effect,MVQSCSAYGCKNRYDKDKPVSFHKFPLTRPSLCKEWEAAVRRKNFKPTKYSSICSEHFTPDCFKRECNNKLLKENAVPTILLCTEPHDKKEDLLEPQEQLPPPPLPPPVSQVDAAIGLLMPPLQTPVNLSVFCDHNYTVEDTMHQRKRIHQLEQQVEKLRKKLKTAQQRCRRQERQLEKLKEVVHFQKEKDDVSERGYVILPNDYFEIVEVPA [F81L]
